Experimental data taken from patent publication US11919930B2, “Odorant receptor co-receptor” (Sumitomo Chemical Company, Limited, priority 2016, dated 2024).

How the values were obtained:
odorant receptor AaOR8 = test: Aequorin luminescence measurement in HEK293FT cells co-expressing AaOR8 and a co-receptor, 1-octen-3-ol added; assay type: cell-based; settings: 1-octen-3-ol 10^-4 to 10^-10 M, compared to cells that expressed original AmORCO or DmORCO
Protocol: HEK293FT cells (purchased from invitrogen, Inc.) were inoculated into 10-cm Petri dishes at a concentration of 3×10^6 cells/Petri dish, and the cells were cultured in DMEM medium containing 10% FBS (manufactured by Nacalai Tesque, Inc.) for about 24 hours under the conditions of 37° C. and 5% CO2. 3 μg of any one of the co-receptor expression plasmids produced, 1.5 μg of any one of the odorant receptor expression plasmids produced, and 8 μg of Aequorin expression plasmid were mixed with 12.5 μL of Plus reagent and 31.25 μL of LIPOFECTAMINE LTX (manufactured by Invitrogen, Inc.), and the mixture was maintained for 30 minutes. Subsequently this liquid mixture was transfected into the above-mentioned cells. After 4 hours from the initiation of transfection, the cells were inoculated onto a 96-well plate at a concentration of 9×10^4 cells/well, and the cells were cultured in DMEM medium containing 10% FBS (manufactured by Nacalai Tesque, Inc.) for about 24 hours under the conditions of 37° C. and 5% CO2. Thereby, transformed cells having a co-receptor expression plasmid, an odorant receptor expression plasmid, and an aequorin expression plasmid transiently incorporated therein were obtained.
(§1) Aequorin is activated when hound to a calcium ion, and oxidizes a substrate such as coelenterazine, thus emitting light. […] Therefore, whether an odorant receptor complex functions an ion channel as a result of addition of a substance to be detected, can be measured from the change in the amount of luminescence.
A culture fluid of the transformed cells was removed, and the medium was exchanged with Hanks-HEPES (20 mM, pH 7.4) including Assay buffer (0.5 μM coelenterazine h (manufactured by Promega Corporation) and 0.3% BSA. culture system was left to stand for another 4 hours at room temperature. Subsequently, a substance to be detected, which corresponded to an odorant receptor, was added to the cell culture using FLEXSTATION 3 (manufactured by Molecular Devices, LLC), and at the same time, the amount of luminescence of the cells was measured. As a control substance, the amount of luminescence in the cells to which dimethyl sulfoxide had been added was designated as 1, and the amount or luminescence of cells to which the substance to be detected was added was calculated as a relative value.
(§2) Cells into which: • an expression plasmid of odorant receptor AaOR8; • an expression plasmid of any one of co-receptor AaORCO or DmORCO, or various chimeric co-receptors Dm-AaORCO having different positions of recombination [Dm(NT-EC1)AaORCO, Dm(NT-TM3)AaOROC, Dm(NT-TM4)AaORCO, Dm(NT-TM5)AaORCO, or Dm(NT-TM6)AaORCO]; and • an aequorin expression plasmid had been incorporated were used, and the amount of luminescence was measured as explained above. 1-Octen-3-ol was used as a substance to be detected, and 1-octen-3-ol was added to the culture fluid at a concentration of 10^−4 M, 10^−5 M, 10^−6 M, 10^−7 M, 10^−8 M, 10^−9 M, or 10^−10 M. The results are presented in FIG. 1.
as §2, with “AmORCO” for “AaORCO”, “Dm-AmORCO” for “Dm-AaORCO”, “[Dm(NT-TM3)AmOROC, Dm(NT-TM4)AmORCO, Dm(NT-TM5)AmORCO,” for “[Dm(NT-EC1)AaORCO, Dm(NT-TM3)AaOROC, Dm(NT-TM4)AaORCO, Dm(NT-TM5)AaORCO,”, “Dm(NT-TM6)AmORCO];” for “Dm(NT-TM6)AaORCO];”, “2. […]” for “1.”

odorant receptor DmOR47a = test: Aequorin luminescence measurement in HEK293FT cells co-expressing DmOR47a and a co-receptor, pentyl acetate added; assay type: cell-based, Drosophila melanogaster; settings: pentyl acetate 10^-4 to 10^-7 M, compared to cells that expressed original DmORCO or AmORCO
Chain of odorant receptor DmOR47a (as listed by the source, one chain of several): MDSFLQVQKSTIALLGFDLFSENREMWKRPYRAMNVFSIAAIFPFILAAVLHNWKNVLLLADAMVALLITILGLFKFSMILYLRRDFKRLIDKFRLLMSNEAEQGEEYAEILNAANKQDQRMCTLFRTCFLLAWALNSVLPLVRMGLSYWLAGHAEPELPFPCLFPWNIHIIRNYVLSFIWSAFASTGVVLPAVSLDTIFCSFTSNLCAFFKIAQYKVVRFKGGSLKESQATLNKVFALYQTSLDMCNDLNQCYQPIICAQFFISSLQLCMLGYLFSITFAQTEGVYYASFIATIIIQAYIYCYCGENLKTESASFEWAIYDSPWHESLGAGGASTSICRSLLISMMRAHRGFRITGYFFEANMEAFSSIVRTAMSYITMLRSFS
Protocol: (§3) HEK293FT cells (purchased from invitrogen, Inc.) were inoculated into 10-cm Petri dishes at a concentration of 3×10^6 cells/Petri dish, and the cells were cultured in DMEM medium containing 10% FBS (manufactured by Nacalai Tesque, Inc.) for about 24 hours under the conditions of 37° C. and 5% CO2. 3 μg of any one of the co-receptor expression plasmids produced, 1.5 μg of any one of the odorant receptor expression plasmids produced, and 8 μg of Aequorin expression plasmid were mixed with 12.5 μL of Plus reagent and 31.25 μL of LIPOFECTAMINE LTX (manufactured by Invitrogen, Inc.), and the mixture was maintained for 30 minutes. Subsequently this liquid mixture was transfected into the above-mentioned cells. […]
as §1, with “luminescence. […]” for “luminescence.”
(§4) Cells into which: • an expression plasmid of odorant receptor DmOR47a; • an expression plasmid of any one of co-receptor DmORCO or AmORCO, or chimeric co-receptor Dm(NT-TM4)AmORCO; and • an aequorin expression plasmid had been incorporated were used, and the amount of luminescence was measured as explained above. […]

odorant receptor BmOR56 = test: Aequorin luminescence measurement in HEK293FT cells co-expressing BmOR56 and a co-receptor, cis-jasmone added; assay type: cell-based, Bombyx mori; settings: cis-jasmone 10^-5 to 10^-11 M, compared to cells that expressed BmORCO and BmOR56
Chain of odorant receptor BmOR56 (as listed by the source, one chain of several): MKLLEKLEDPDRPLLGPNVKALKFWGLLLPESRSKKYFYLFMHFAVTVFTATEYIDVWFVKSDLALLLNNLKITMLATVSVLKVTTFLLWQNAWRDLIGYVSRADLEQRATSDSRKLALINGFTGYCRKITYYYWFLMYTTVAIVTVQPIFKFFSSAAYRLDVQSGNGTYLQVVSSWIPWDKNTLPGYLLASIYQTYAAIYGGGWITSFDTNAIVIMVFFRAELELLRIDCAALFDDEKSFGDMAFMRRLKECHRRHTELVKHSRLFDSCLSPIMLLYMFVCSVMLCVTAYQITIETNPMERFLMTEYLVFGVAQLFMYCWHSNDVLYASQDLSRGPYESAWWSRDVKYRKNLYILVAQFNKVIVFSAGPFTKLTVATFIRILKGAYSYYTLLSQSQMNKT
Protocol: as §3
as §1, with “luminescence. […]” for “luminescence.”
as §4, with “BmOR56;” for “DmOR47a;”, “BmORCO” for “DmORCO or AmORCO,”

Chain of odorant receptor AaOR8 (as listed by the source): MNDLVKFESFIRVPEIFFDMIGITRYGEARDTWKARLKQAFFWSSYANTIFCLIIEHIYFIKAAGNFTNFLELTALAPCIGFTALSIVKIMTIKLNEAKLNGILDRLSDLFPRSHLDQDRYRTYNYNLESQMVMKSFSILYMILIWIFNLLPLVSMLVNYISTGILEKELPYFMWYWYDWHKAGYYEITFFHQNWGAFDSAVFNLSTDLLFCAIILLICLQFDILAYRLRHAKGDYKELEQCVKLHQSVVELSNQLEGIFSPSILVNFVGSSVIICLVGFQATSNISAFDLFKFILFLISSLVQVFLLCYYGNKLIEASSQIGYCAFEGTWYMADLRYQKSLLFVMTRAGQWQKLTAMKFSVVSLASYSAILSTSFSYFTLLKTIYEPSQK

B1: Dm(NT-TM4)AmORCO: chimeric co-receptor: NT to TM4 from Drosophila co-receptor, IC2 to C-terminal domain from Apis co-receptor; SEQ ID NO:100 (protein)
chain: MTTSMQPSKYTGLVADLMPNIRAMKYSGLFMHNFTGGSAFMKKVYSSVHLVFLLMQFTFILVNMALNAEEVNELSGNTITTLFFTHCITKFIYLAVNQKNFYRTLNIWNQVNTHPLFAESDARYHSIALAKMRKLFFLVMLTTVASATAWTTITFFGDSVKMVVDHETNSSIPVEIPRLPIKSFYPWNASHGMFYMISFAFQIYYVLFSMIHSNLCDVMFCSWLIFACEQLQHLKNIMKPLMEFSATLDTVVPNSGELFKAGSAEQPKEQEPLPPVTPPQGENMLDMDLRGIYSNRTDFTTTFRPTAGMTFNGGVGPNGLTKKQEMLVRSAIKYWVERHKHIVRLVTAIGDAYGVALLLHMLTTTITLTLLAYQATKIHAVDTYAASVVGYLLYSLGQVFMLCIFGNRLIEESSSVMEAAYSCHWYDGSEEAKTFVQIVCQQCQKAMSISGAKFFTVSLDLFASVLGAMVTYFMVLVQLK
Question: Which “increase in the amount of luminescence caused by addition of 1-octen-3-ol” value (odorant receptor AaOR8) does the source give for B1 here?
Answer: the increase in the amount of luminescence caused by addition of 1-octen-3-ol was larger

Question: What about the “response (relative amount of luminescence) to pentyl acetate” value (odorant receptor DmOR47a) of the same molecule?
Answer: responded more strongly to pentyl acetate

Question: What about the “response (relative amount of luminescence) to cis-jasmone” value (odorant receptor BmOR56) of the same molecule?
Answer: responded more strongly to cis-jasmone
